Measurements published in PMC6775958 (Pharmacology Research & Perspectives, 2019).
Values joined by “and” are separate entries in the source; they are usually repeats but may differ in a detail not shown here. Equal values may be shown once. Read-outs that look alike come from different tables or passages of the source.

How the values were obtained:
[1] = conscious dogs, cited from earlier work; for Bioavailability: pilot experiments
Euglycemic glucose clamp = type: in vivo, swine; conditions: 20 IU RHI
[2] = Pharmacokinetics of RHI in anesthetized swine; type: in vivo; conditions: 20 IU RHI, mean ± SEM; for Cmax (peak serum concentration), Non-transformed / Tmax (time to peak serum concentration): non-compartmental
[3] = Subcutaneous, natural logarithmic scale, n = 9

| Substance | Cmax after oral than after subcutaneous administration ([1]; oral ODP vs subcutaneous) | Tmax after oral than after subcutaneous administration ([1]; oral ODP vs subcutaneous) | Bioavailability ([1]; oral delivery by the ODP) [%] | Bioavailability ([1]; subcutaneous injections) [%] | Biological activity of RHI delivered by the ODP (increased demand for glucose delivery to maintain the euglycemic clamp) (Euglycemic glucose clamp; ODP (jejunal wall), anesthetized swine) | Mean AUClast of glucose infusion rates (Euglycemic glucose clamp; Subcutaneous, euglycemic clamp, swine, 0-420 min, mean ± SEM, n = 9) [g/min^2] | Cmax (peak serum concentration), Non-transformed ([2]; Intrajejunal wall (ODP), n = 8) [nM] | Tmax (time to peak serum concentration) ([2]; Intrajejunal wall (ODP), n = 8) | Area under the insulin concentration curve ([2]; ODP (jejunal wall), n = 8 (abstract)) [nmol/L/min] | Area under the insulin concentration curve ([2]; Subcutaneous, n = 9 (abstract)) [nmol/L/min] | AUClast, Log-transformed [2, 3] [pmol/L·min] | Cmax, Log-transformed [2, 3] [pmol/L] | Cmax (peak serum concentration), Non-transformed ([2]; Subcutaneous, n = 9) [nM] | Tmax (time to peak serum concentration) ([2]; Subcutaneous, n = 9) |
| --- | --- | --- | --- | --- | --- | --- | --- | --- | --- | --- | --- | --- | --- | --- |
| human immunoglobulin G [human IgG] | higher | shorter | 60 | 50 |  |  |  |  |  |  |  |  |  |  |
| recombinant human insulin [RHI] |  |  |  |  | confirmed | 106 ± 10 | 0.517 ± 0.109 | 2.32 ± 0.65 h and 2.32 ± 0.7 h | 83 ± 18 | 81 ± 10 | 2178 ± 49 | 5.74 ± 0.17 | 0.342 ± 0.05 | 4 ± 0.517 h and 3.78 ± 0.4 h |
